Numbered stars: 1 amine (or outer) side, 2 acyl side, 3 side chain; on linkers, the order of the positions; unused ones are H or OH. Bridge positions count the residues as written; N and C are the ends. Side chains are listed from the residue outwards. Ends that are not written are not given here. * marks the point of attachment. C20 diacid = O=C(O)CCCCCCCCCCCCCCCCCCC(=O)*; γGlu = O=C(O)[C@H](CCC(=O)[*:2])N[*:1]; AEEA = NCCOCCOCC(=O)O
T1: human calcitonin receptor (human, UniProt P30988 25-474)
T1 sequence (looked up): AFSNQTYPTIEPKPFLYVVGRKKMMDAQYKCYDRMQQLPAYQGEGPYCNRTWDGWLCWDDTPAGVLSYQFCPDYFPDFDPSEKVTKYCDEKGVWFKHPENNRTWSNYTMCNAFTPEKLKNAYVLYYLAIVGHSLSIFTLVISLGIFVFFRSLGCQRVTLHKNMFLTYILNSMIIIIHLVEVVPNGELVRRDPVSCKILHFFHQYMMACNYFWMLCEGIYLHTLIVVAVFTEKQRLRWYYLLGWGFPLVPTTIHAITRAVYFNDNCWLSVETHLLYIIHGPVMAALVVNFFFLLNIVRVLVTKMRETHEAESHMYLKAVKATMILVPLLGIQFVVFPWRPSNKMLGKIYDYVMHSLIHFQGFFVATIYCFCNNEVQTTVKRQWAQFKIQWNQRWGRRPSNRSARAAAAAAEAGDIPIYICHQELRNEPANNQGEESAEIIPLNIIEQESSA

T2: human amylin 3(a) receptor (human calcitonin receptor + RAMP-3) (human, UniProt P30988 25-474; O60896 24-148, limits assumed)
T2 sequence (looked up) 1: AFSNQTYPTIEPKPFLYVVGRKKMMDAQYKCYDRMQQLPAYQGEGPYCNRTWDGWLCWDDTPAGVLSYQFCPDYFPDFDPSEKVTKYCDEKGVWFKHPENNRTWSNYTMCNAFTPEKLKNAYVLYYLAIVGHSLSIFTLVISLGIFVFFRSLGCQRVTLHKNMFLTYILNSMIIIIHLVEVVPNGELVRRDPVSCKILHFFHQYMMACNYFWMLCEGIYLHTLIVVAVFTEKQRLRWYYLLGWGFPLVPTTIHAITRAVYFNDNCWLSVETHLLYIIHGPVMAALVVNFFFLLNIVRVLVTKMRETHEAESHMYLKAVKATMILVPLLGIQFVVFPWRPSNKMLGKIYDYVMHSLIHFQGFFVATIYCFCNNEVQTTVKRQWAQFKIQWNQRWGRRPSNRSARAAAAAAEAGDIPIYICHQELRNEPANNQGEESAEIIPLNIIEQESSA
T2 sequence (looked up) 2: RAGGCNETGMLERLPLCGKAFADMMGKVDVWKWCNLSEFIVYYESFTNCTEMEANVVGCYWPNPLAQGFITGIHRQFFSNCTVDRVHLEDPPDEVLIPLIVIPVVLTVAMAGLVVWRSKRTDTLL


Key:
[1] = molecular target: T1, human calcitonin receptor; test: cell-based or functional assay
[2] = molecular target: T2, human amylin 3(a) receptor (human …); test: cell-based or functional assay

Ratio hCT/hAmylin funct. [1]	hAmylin-R funct. EC50 (pM) [2]	Binder
3.6	80 pM	{C20 diacid-γGlu-AEEA-AEEA}-KCNTATCATQRLAEFLRHSSPNFGAIPSSTNVGSNTP-NH2 (disulfide 2-7; SMILES CC[C@H](C)[C@H](NC(=O)[C@H](C)NC(=O)CNC(=O)[C@H](Cc1ccccc1)NC(=O)[C@H](CC(N)=O)NC(=O)[C@@H]1CCCN1C(=O)[C@H](CO)NC(=O)[C@H](CO)NC(=O)[C@H](Cc1c[nH]cn1)NC(=O)[C@H](CCCNC(=N)N)NC(=O)[C@H](CC(C)C)NC(=O)[C@H](Cc1ccccc1)NC(=O)[C@H](CCC(=O)O)NC(=O)[C@H](C)NC(=O)[C@H](CC(C)C)NC(=O)[C@H](CCCNC(=N)N)NC(=O)[C@H](CCC(N)=O)NC(=O)[C@@H](NC(=O)[C@H](C)NC(=O)[C@@H]1CSSC[C@H](NC(=O)[C@H](CCCCN)NC(=O)COCCOCCNC(=O)COCCOCCNC(=O)CC[C@H](NC(=O)CCCCCCCCCCCCCCCCCCC(=O)O)C(=O)O)C(=O)N[C@@H](CC(N)=O)C(=O)N[C@@H]([C@@H](C)O)C(=O)N[C@@H](C)C(=O)N[C@@H]([C@@H](C)O)C(=O)N1)[C@@H](C)O)C(=O)N1CCC[C@H]1C(=O)N[C@@H](CO)C(=O)N[C@@H](CO)C(=O)N[C@H](C(=O)N[C@@H](CC(N)=O)C(=O)N[C@H](C(=O)NCC(=O)N[C@@H](CO)C(=O)N[C@@H](CC(N)=O)C(=O)N[C@H](C(=O)N1CCC[C@H]1C(N)=O)[C@@H](C)O)C(C)C)[C@@H](C)O, also called compound 20)
2.2	213 pM	K([γGlu-γGlu-C20 diacid])CNTATCATQRLAEFLRHSSPNFGAIPSSTNVGSNTP-NH2 (disulfide 2-7; N-terminus assumed; SMILES CC[C@H](C)[C@H](NC(=O)[C@H](C)NC(=O)CNC(=O)[C@H](Cc1ccccc1)NC(=O)[C@H](CC(N)=O)NC(=O)[C@@H]1CCCN1C(=O)[C@H](CO)NC(=O)[C@H](CO)NC(=O)[C@H](Cc1c[nH]cn1)NC(=O)[C@H](CCCNC(=N)N)NC(=O)[C@H](CC(C)C)NC(=O)[C@H](Cc1ccccc1)NC(=O)[C@H](CCC(=O)O)NC(=O)[C@H](C)NC(=O)[C@H](CC(C)C)NC(=O)[C@H](CCCNC(=N)N)NC(=O)[C@H](CCC(N)=O)NC(=O)[C@@H](NC(=O)[C@H](C)NC(=O)[C@@H]1CSSC[C@H](NC(=O)[C@@H](N)CCCCNC(=O)CC[C@H](NC(=O)CC[C@H](NC(=O)CCCCCCCCCCCCCCCCCCC(=O)O)C(=O)O)C(=O)O)C(=O)N[C@@H](CC(N)=O)C(=O)N[C@@H]([C@@H](C)O)C(=O)N[C@@H](C)C(=O)N[C@@H]([C@@H](C)O)C(=O)N1)[C@@H](C)O)C(=O)N1CCC[C@H]1C(=O)N[C@@H](CO)C(=O)N[C@@H](CO)C(=O)N[C@H](C(=O)N[C@@H](CC(N)=O)C(=O)N[C@H](C(=O)NCC(=O)N[C@@H](CO)C(=O)N[C@@H](CC(N)=O)C(=O)N[C@H](C(=O)N1CCC[C@H]1C(N)=O)[C@@H](C)O)C(C)C)[C@@H](C)O, also called compound 13)
2.9	62 pM	{C20 diacid-γGlu}-GRCNTATCATQRLAHFLRHSSPNFGAIPSSTNVGPNTY-NH2 (disulfide 3-8; SMILES CC[C@H](C)[C@H](NC(=O)[C@H](C)NC(=O)CNC(=O)[C@H](Cc1ccccc1)NC(=O)[C@H](CC(N)=O)NC(=O)[C@@H]1CCCN1C(=O)[C@H](CO)NC(=O)[C@H](CO)NC(=O)[C@H](Cc1c[nH]cn1)NC(=O)[C@H](CCCNC(=N)N)NC(=O)[C@H](CC(C)C)NC(=O)[C@H](Cc1ccccc1)NC(=O)[C@H](Cc1c[nH]cn1)NC(=O)[C@H](C)NC(=O)[C@H](CC(C)C)NC(=O)[C@H](CCCNC(=N)N)NC(=O)[C@H](CCC(N)=O)NC(=O)[C@@H](NC(=O)[C@H](C)NC(=O)[C@@H]1CSSC[C@H](NC(=O)[C@H](CCCNC(=N)N)NC(=O)CNC(=O)CC[C@H](NC(=O)CCCCCCCCCCCCCCCCCCC(=O)O)C(=O)O)C(=O)N[C@@H](CC(N)=O)C(=O)N[C@@H]([C@@H](C)O)C(=O)N[C@@H](C)C(=O)N[C@@H]([C@@H](C)O)C(=O)N1)[C@@H](C)O)C(=O)N1CCC[C@H]1C(=O)N[C@@H](CO)C(=O)N[C@@H](CO)C(=O)N[C@H](C(=O)N[C@@H](CC(N)=O)C(=O)N[C@H](C(=O)NCC(=O)N1CCC[C@H]1C(=O)N[C@@H](CC(N)=O)C(=O)N[C@H](C(=O)N[C@@H](Cc1ccc(O)cc1)C(N)=O)[C@@H](C)O)C(C)C)[C@@H](C)O)

The next lines start with the binder.

Binder	Ratio hCT/hAmylin funct. [1]	hAmylin-R funct. EC50 (pM) [2]
{C20 diacid-γGlu-γGlu}-KCNTATCATQRLAEFLRHSSPNFGAIPSSTNVGSNTP-NH2 (disulfide 2-7; SMILES CC[C@H](C)[C@H](NC(=O)[C@H](C)NC(=O)CNC(=O)[C@H](Cc1ccccc1)NC(=O)[C@H](CC(N)=O)NC(=O)[C@@H]1CCCN1C(=O)[C@H](CO)NC(=O)[C@H](CO)NC(=O)[C@H](Cc1c[nH]cn1)NC(=O)[C@H](CCCNC(=N)N)NC(=O)[C@H](CC(C)C)NC(=O)[C@H](Cc1ccccc1)NC(=O)[C@H](CCC(=O)O)NC(=O)[C@H](C)NC(=O)[C@H](CC(C)C)NC(=O)[C@H](CCCNC(=N)N)NC(=O)[C@H](CCC(N)=O)NC(=O)[C@@H](NC(=O)[C@H](C)NC(=O)[C@@H]1CSSC[C@H](NC(=O)[C@H](CCCCN)NC(=O)CC[C@H](NC(=O)CC[C@H](NC(=O)CCCCCCCCCCCCCCCCCCC(=O)O)C(=O)O)C(=O)O)C(=O)N[C@@H](CC(N)=O)C(=O)N[C@@H]([C@@H](C)O)C(=O)N[C@@H](C)C(=O)N[C@@H]([C@@H](C)O)C(=O)N1)[C@@H](C)O)C(=O)N1CCC[C@H]1C(=O)N[C@@H](CO)C(=O)N[C@@H](CO)C(=O)N[C@H](C(=O)N[C@@H](CC(N)=O)C(=O)N[C@H](C(=O)NCC(=O)N[C@@H](CO)C(=O)N[C@@H](CC(N)=O)C(=O)N[C@H](C(=O)N1CCC[C@H]1C(N)=O)[C@@H](C)O)C(C)C)[C@@H](C)O, also called compound 14)	1.6	146 pM
{C20 diacid-γGlu}-GRCNTATCATQRLAAFLRHSSPNFGAIPSSTNVGPNTY-NH2 (disulfide 3-8)	2.1	70 pM
{C20 diacid-γGlu}-GRCNTATCATQRLAAFLRHSSPNFGAIPSSTNVGHNTY-NH2 (disulfide 3-8; SMILES CC[C@H](C)[C@H](NC(=O)[C@H](C)NC(=O)CNC(=O)[C@H](Cc1ccccc1)NC(=O)[C@H](CC(N)=O)NC(=O)[C@@H]1CCCN1C(=O)[C@H](CO)NC(=O)[C@H](CO)NC(=O)[C@H](Cc1c[nH]cn1)NC(=O)[C@H](CCCNC(=N)N)NC(=O)[C@H](CC(C)C)NC(=O)[C@H](Cc1ccccc1)NC(=O)[C@H](C)NC(=O)[C@H](C)NC(=O)[C@H](CC(C)C)NC(=O)[C@H](CCCNC(=N)N)NC(=O)[C@H](CCC(N)=O)NC(=O)[C@@H](NC(=O)[C@H](C)NC(=O)[C@@H]1CSSC[C@H](NC(=O)[C@H](CCCNC(=N)N)NC(=O)CNC(=O)CC[C@H](NC(=O)CCCCCCCCCCCCCCCCCCC(=O)O)C(=O)O)C(=O)N[C@@H](CC(N)=O)C(=O)N[C@@H]([C@@H](C)O)C(=O)N[C@@H](C)C(=O)N[C@@H]([C@@H](C)O)C(=O)N1)[C@@H](C)O)C(=O)N1CCC[C@H]1C(=O)N[C@@H](CO)C(=O)N[C@@H](CO)C(=O)N[C@H](C(=O)N[C@@H](CC(N)=O)C(=O)N[C@H](C(=O)NCC(=O)N[C@@H](Cc1c[nH]cn1)C(=O)N[C@@H](CC(N)=O)C(=O)N[C@H](C(=O)N[C@@H](Cc1ccc(O)cc1)C(N)=O)[C@@H](C)O)C(C)C)[C@@H](C)O)	4.9	109 pM
